Km, kcat and kcat/Km data for one substance are collected here from ChEMBL document CHEMBL1143427, “Interactions of ceftobiprole with beta-lactamases from molecular classes A to D” (Antimicrob Agents Chemother, 2007).

A value given as a limit tells only on which side of the number the result lay.

The test system of data set [1] is CC(C)(O/N=C(\C(=O)N[C@@H]1C(=O)N2C(C(=O)[O-])=C(C[n+]3ccccc3)CS[C@H]12)c1csc(N)n1)C(=O)O. The experiment in a line: (§1) Activity of Morganella morganii AmpC assessed as drug hydrolysis by spectrophotometry.
In data set [2] the test system is Nc1nc(/C(=N/O)C(=O)N[C@@H]2C(=O)N3C(C(=O)O)=C(/C=C4\CCN([C@@H]5CCNC5)C4=O)CS[C@H]23)ns1. The description is as §1.
The test system of data set [3] is O=C(Cc1cccs1)N[C@@H]1C(=O)N2C(C(=O)O)=C(/C=C/c3ccc([N+](=O)[O-])cc3[N+](=O)[O-])CS[C@H]12. The data set is described as §1.
Data set [4] has as its system CO/N=C(\C(=O)N[C@@H]1C(=O)N2C(C(=O)[O-])=C(C[N+]3(C)CCCC3)CS[C@H]12)c1csc(N)n1. The description is as §1.
Data set [5] has as its system O=C(Cc1cccs1)N[C@@H]1C(=O)N2C(C(=O)[O-])=C(C[n+]3ccccc3)CS[C@H]12. Described as §1.
For data set [6], the system named is CC1(C)S[C@@H]2[C@H](NC(=O)Cc3ccccc3)C(=O)N2[C@H]1C(=O)O. The data set is described as §1.
The test system of data set [7] is CC(C)(O/N=C(\C(=O)N[C@@H]1C(=O)N2C(C(=O)[O-])=C(C[n+]3ccccc3)CS[C@H]12)c1csc(N)n1)C(=O)O. Kind of data set: (§2) Ratio of Kcat to Km of Morganella morganii AmpC assessed as drug hydrolysis by spectrophotometry.
Data set [8] relates to Nc1nc(/C(=N/O)C(=O)N[C@@H]2C(=O)N3C(C(=O)O)=C(/C=C4\CCN([C@@H]5CCNC5)C4=O)CS[C@H]23)ns1. The description is as §2.
The subject of data set [9] is O=C(Cc1cccs1)N[C@@H]1C(=O)N2C(C(=O)O)=C(/C=C/c3ccc([N+](=O)[O-])cc3[N+](=O)[O-])CS[C@H]12. Described as §2.
The test system of data set [10] is CO/N=C(\C(=O)N[C@@H]1C(=O)N2C(C(=O)[O-])=C(C[N+]3(C)CCCC3)CS[C@H]12)c1csc(N)n1. The data set is described as §2.
Data set [11] concerns O=C(Cc1cccs1)N[C@@H]1C(=O)N2C(C(=O)[O-])=C(C[n+]3ccccc3)CS[C@H]12. Described as §2.
In data set [12] the test system is CC1(C)S[C@@H]2[C@H](NC(=O)Cc3ccccc3)C(=O)N2[C@H]1C(=O)O. The description is as §2.

A word on the Km: it is the substrate concentration at which the rate is half of its maximum. As usually defined, the kcat is the maximal rate divided by the concentration of active sites. As usually defined, the kcat/Km is the second-order rate constant that governs catalysis at low substrate concentration. As for “Beta-lactamase (Morganella morganii) (from UniProt P94958)”, the Km in [1] was 14 µM; in data set [2], 23 µM; in data set [3] it was 31 µM; in data set [4], 690 µM; in [5], 260 µM; in data set [6], 7.9 µM. Further, the turnover number (kcat) in [1] was less than 1 s⁻¹; in [2], less than 0.047 s⁻¹; in [3], 1200 s⁻¹; in [4], less than 0.35 s⁻¹; in data set [5] it was 740 s⁻¹; in data set [6], 190 s⁻¹. The catalytic efficiency (kcat/Km) in data set [7] is less than 71000 M⁻¹ s⁻¹; in data set [8] it was less than 2000 M⁻¹ s⁻¹; in data set [9] it was 3.9e+07 M⁻¹ s⁻¹; in [10], less than 510 M⁻¹ s⁻¹; in data set [11], 2.8e+06 M⁻¹ s⁻¹; in [12], 2.4e+07 M⁻¹ s⁻¹.
